System: LPS + IFNγ‐stimulated primary human macrophages
Experiment: In vitro photodynamic therapy, MTT viability, LPS + IFNγ-stimulated macrophages
Assay type: cell-based
Settings: 30 µM 1 h 37 °C, washed
From the text: We next coupled MACTIDE to the photosensitizer Verteporfin, intending to deplete CD206^+ TAM using photodynamic therapy (PDT). To this end, carboxy‐Verteporfin was coupled to the N‐terminus of MACTIDE, a construct referred to as “MACTIDE‐V” (Figure 5A). We performed in vitro photodynamic therapy with MACTIDE‐V on primary human macrophages stimulated with IL‐4 or LPS + IFNγ.
Figure 5 In vitro and in vivo photodynamic therapy with MACTIDE‐V. A) Structure of MACTIDE‐V. B) MACTIDE‐V, CtrlPep‐V, and DOX were incubated with primary human macrophages (obtained from monocytes derived from human blood buffy coat) at 30 µM for 1 h at 37 °C, followed by 2 washes with media. Then, the groups shown in pink were irradiated with 10 J cm^−2 (irradiance: 170 mW cm^−2, spot diameter: 0.5 cm). […] Peptide‐V conjugates were administered i.p. at a dose of 30 nmol (1 mg Kg^−1 in Verteporfin). For the irradiated groups, 4 h after administration of conjugates or PBS, the mice were irradiated with 100 J cm^−2; shown is primary tumor volume progression during treatment. Gray arrows indicate injection days. D) Bodyweight during the treatment as % of the initial one. E) Representative mIHC images of PBS, CtrlPep‐V, and MACTIDE‐V‐treated tumors, 20X magnification, scale bar = 100 µm, white triangles point to Foxp3^+ cells. F) CD8^+ T cells, CD4^+ T cells, and Treg density, n = 6 mice/group, with every dot representing the mean cell density of each tumor obtained from 20 images. G) CD8^+ T cells density in CK8^+‐dense tumor regions. n = 5 mice/group, with every dot representing the mean cell density of each tumor obtained from 20 images. Median ± interquartile range. One‐way ANOVA with multiple comparisons, ^* p ≤ 0.05, ^** p ≤ 0.01.
Human peripheral mononuclear cells (PBMCs) were purified from human blood buffy coats following the protocol described previously.^[ [24] ^] […] Crystal formation was monitored every 20–30 min to not oversaturate the absorbance values.

Substance | toxicity with and without irradiation (with or without 10 J cm^−2, 48 h) | macrophages depleted, irradiated (irradiated 10 J cm^−2 (689 nm), 48 h, n = 6) [%] | toxicity, non‐irradiated (no irradiation, 48 h, n = 6)
Vert‐Ahx‐AKPCGS‐OH [CtrlPep‐V, reference compound] | no toxicity | – | –
Vert‐Ahx‐G(CTKSIPPIC)SPGAK‐OH (disulfide) [MACTIDE‐V] | – | 40 | no toxicity

Reference: PMC11904948, “Peptide‐Drug Conjugate for Therapeutic Reprogramming of Tumor‐Associated Macrophages in Breast Cancer” (Advanced Science, 2025)
